Test results reported in US20030124117A1.
Read-outs that look alike come from different tables or passages of the source. Each block holds one molecule with its values, some of them ahead of it.

Columns and labels:
[1] = molecular target: truncated transmembrane tissue factor comprising residues 1-243, relipidated (human) (UniProt P13726); experiment: cell-based or functional assay
[2] = molecular target: soluble tissue factor composed of the extracellular domain residues 1-219 of hTF (human) (UniProt P13726); experiment: TF binding assay (ELISA on coated human soluble TF), ratio to chimeric F(ab) standard
[3] = molecular target: relipidated human tissue factor (Innovin) (human) (UniProt P13726); experiment: cell-based or functional assay
[4] = molecular target: tissue factor on human J82 cells (human) (UniProt P13726); experiment: cell-based or functional assay
[5] = molecular target: truncated transmembrane tissue factor comprising residues 1-243, relipidated (human) (UniProt P13726); experiment: cell-based or functional assay; remark: listed apart in the source

Chain of truncated transmembrane tissue factor comprising residues 1-243, relipidated (human) (P13726 33-275): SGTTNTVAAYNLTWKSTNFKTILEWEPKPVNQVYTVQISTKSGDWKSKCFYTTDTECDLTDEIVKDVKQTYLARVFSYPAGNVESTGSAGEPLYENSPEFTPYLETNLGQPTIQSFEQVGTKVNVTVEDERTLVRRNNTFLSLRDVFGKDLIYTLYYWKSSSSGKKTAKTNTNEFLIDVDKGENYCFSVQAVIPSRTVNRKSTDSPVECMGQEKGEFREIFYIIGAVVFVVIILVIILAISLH
Chain of soluble tissue factor composed of the extracellular domain residues 1-219 of hTF (human) (P13726 33-251): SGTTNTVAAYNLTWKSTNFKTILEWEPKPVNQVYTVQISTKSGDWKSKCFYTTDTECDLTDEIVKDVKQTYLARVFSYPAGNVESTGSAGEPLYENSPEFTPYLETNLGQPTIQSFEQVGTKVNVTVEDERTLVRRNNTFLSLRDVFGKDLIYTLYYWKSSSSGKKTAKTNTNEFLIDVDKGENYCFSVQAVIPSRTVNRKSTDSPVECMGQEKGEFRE
Chain of tissue factor on human J82 cells (human) (P13726 33-295): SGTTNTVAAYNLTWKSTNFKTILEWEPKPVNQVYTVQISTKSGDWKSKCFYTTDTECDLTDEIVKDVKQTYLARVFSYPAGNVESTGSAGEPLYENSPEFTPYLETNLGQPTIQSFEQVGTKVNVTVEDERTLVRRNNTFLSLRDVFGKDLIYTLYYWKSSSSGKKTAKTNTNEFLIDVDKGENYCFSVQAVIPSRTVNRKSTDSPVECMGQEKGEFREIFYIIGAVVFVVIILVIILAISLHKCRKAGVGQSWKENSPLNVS
Chain of relipidated human tissue factor (Innovin) (human) (P13726 33-295 limits assumed): as the sequence (P13726 33-295) above

concentration inhibiting the rate of FX activation in human plasma by 50% [1]: 150 µg/mL
Molecule: HTF1 antibody

fold reduction in binding against chimeric D3 F(ab) [2]: 14.2 fold
Molecule: chimeric D3 F(ab) with CDR-H2 Asp H65 changed to Gly (Fab)

fold reduction in binding against chimeric D3 F(ab) [2]: 20.3 fold
Molecule: chimeric D3 F(ab) with CDR-H3 Thr96-Ala97-Ala98 changed to TF8 Asn96-Ser97-Tyr98 (Fab)

antibody concentration prolonging the clotting time (PT) by 1.5-fold [3]: 27 µg/mL
IC50 of FPA generation, human ex-vivo blood flow system with J82 cells [4]: 50 µg/mL
concentration inhibiting the rate of FX activation in human plasma by 50% [5]: 15.5 µg/mL
B1: murine anti-TF antibody 5G6 (antibody, V domains shown)
VH: EVLLQQSGPELVKPGASVKIPCKASGYTFTEYNMDWVKQSHGKSLEWIGDINPNNGNTIYNQKFKGKATLTVDKSSTTAYLELRSLTSEDTAVYFCARDHDYYFDFWGQGTTLTVSS
VL: DIQMTQTPASQSASLGESVTITCLASQTIDTWLAWYQQKPGKSPQLLIYAATSLADGVPSRFSGSGSGTKFSFKISSLQAEDFVSYYCQQPYSSPYTFGGGTKLELKR
modifications: murine constant regions
